According to patent publication US20210403579A1 (DELINIA, published 2021):
Numbering of substitutions follows the chain as printed.

T1: Human ST2 (human, UniProt Q01638 19-328, limits assumed)
T1 construct: also called human ST2 protein; Interleukin 1 receptor-like 1
T1 sequence (looked up): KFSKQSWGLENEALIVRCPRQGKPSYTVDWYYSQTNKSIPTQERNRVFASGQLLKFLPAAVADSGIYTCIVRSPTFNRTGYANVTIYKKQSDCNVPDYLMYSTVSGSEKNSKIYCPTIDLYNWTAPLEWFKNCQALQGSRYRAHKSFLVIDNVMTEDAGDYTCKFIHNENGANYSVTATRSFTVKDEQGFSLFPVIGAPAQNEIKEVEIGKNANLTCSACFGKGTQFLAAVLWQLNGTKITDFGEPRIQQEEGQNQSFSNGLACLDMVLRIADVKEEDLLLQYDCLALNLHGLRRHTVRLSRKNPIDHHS

B1: Human ST2 IgG1 Antibody 31 (antibody, V domains shown)
VH: QVQLVQSGAEVKKPGSSVKVSCKASGGTFSTYAFSWVRQAPGQGLEYMGGIIPMFGTANYAQKFQGRVTITADESTSTAYMELSSLRSEDTAVYYCAGERGYGSLDYWGQGTLVTVSS
VL: DIQMTQSPSSLSASVGDRVTITCRASQGIGSWLAWYQQKPGKAPKLLIYAASSLQSGVPSRFSGSGSGTDFTLTISSLQPEDFATYYCQQSYTFPYTFGQGTKLEIKR
notes: IgG1; also called ST2 Antibody 31
B2: Human ST2 IgG1 Antibody 34 (antibody, V domains shown)
VH: QVQLVQSGAEVKKPGASVKVSCKASGQTFTDYAINWVRQAPGQGLEWMGWMNPNSGNTGYAQKFQGRVTMTRDTSTSTVYMELSSLRSEDTAVYYCARETLEQQLPFDYWGQGTLVTVSS
VL: B1 VL with G28S, G30S, S53T, S91Y, T93S, F94T, P95L, L104V
notes: IgG1; also called ST2 Antibody 34
B3: Human ST2 IgG1 Antibody 36 (antibody, V domains shown)
VH: QVQLVQSGAEVKKPGASVKVSCKASGYTFTSYGISWVRQAPGQGLEWMGWIDPNSGGTNYAQKFQGRVTMTRDTSTSTVYMELSSLRSEDTAVYYCARDDWFSGDLDYWGQGTLVTVSS
VL: B1 VL with G30D, S53K, S56G, S91G, T93S, F94T, Y96I, L104V, E105D
notes: IgG1; also called ST2 Antibody 36
B4: Human ST2 IgG1 Antibody 48 (antibody, V domains shown)
VH: EVQLLQSGGGLVQPGGSLRLSCAASEFTFSNAWMSWVRQAPGKGLEWVSTISGTSRYTYYADSVKGRFTISRDNSKNSLYLQMNSLRAEDTAVYYCARDQDGRLDYWGQGTLVTVSS
VL: B1 VL with G28N, A50R, S53T, T93S, F94T, L104V
notes: IgG1; also called ST2 Antibody 48
B5: Human ST2 IgG1 Antibody 40 (antibody, V domains shown)
VH: QVQLVQSGAEVKKPGASVKVSCKASGYTFTSYYIHWVRQAPGQGLEWMGIINPSADTTTYAQQFQGRVTMTRDTSTSTVYMELSSLRSEDTAVYYCARTPGNYGGNSLGYYYYYGMDVWGQGTLVTVSS
VL: B1 VL with G28S, I29V, S31T, S53T, T93S, F94S, Y96L, Q100P, L104V, E105D
notes: IgG1; also called ST2 Antibody 40
B6: Human ST2 IgG1 Antibody 32 (antibody, V domains shown)
VH: EVQLLESGGGLVQPGGSLRLSCAASGFTFSNSDMNWVRQAPGKGLEWVSFISSSSGYTYYADSVKGRFTISRDNSKNTLYLQMNSLRAEDTAVYYCARANNNWNFYFDYWGQGTLVTVSS
VL: B1 VL with G28S, G30N, S31N, A50S, T93D, F94T, Y96I, L104V
notes: IgG1; also called ST2 Antibody 32
B7: Human ST2 IgG1 Antibody 44 (antibody, V domains shown)
VH: EVQLLESGGGLVKPGGSLRLSCAASGFTFSSYWMSWVRQAPGKGLEWVSAISGTAINTYYADSVKGRFTISRDDSKNTLYLQMNSLKTEDTAVYYCARVRRDSSGGGAFDIWGQGTMVTVSS
VL: B1 VL with G30S, S31N, W32N, A34N, S56T, T93S, F94T, Y96P, L104V
notes: IgG1; also called ST2 Antibody 44
B8: Human ST2 IgG1 Antibody 37 (antibody, V domains shown)
VH: EVQLLESGGGLVQPGGSLRLSCAASGFTFTDAWMNWVRQAPGKGLEWVSTISVSVGVTYYADSVKGRFTISRDNSKNTLYLQMNSLRAEDTAVYYCATIGSMATIRKGATDAFDIWGQGTLVTVSS
VL: B1 VL with G28R, G30N, W32Y, A34N, S53T, T93S, F94T, Y96P, Q100G, L104V
notes: IgG1; also called ST2 Antibody 37
B9: Human ST2 IgG1 Antibody 42 (antibody, V domains shown)
VH: QVQLVQSGAEVKKPGASVKVSCKASGYTFNSHWVHWVRQAPGQGLEWMGWISAYNGNTNYAQKLQGRVTMTRDTSTSTVYMELSSLRSEDTAVYYCASGDYPYYYYGMDVWGQGTTVTVSS
VL: B1 VL with I29V, G30A, S31N, A50S, S53N, Y92S, T93S, Y96L, G101S, K103R
notes: IgG1; also called ST2 Antibody 42
B10: Human ST2 IgG1 Antibody 29 (antibody, V domains shown)
VH: QVQLVQSGAEVKKPGASVKVSCKASGGTFTGYFIHWVRQAPGQGLEWMGWMNPNSGNTGYAQKFQGRVTMTRDTSTSTVYMELSSLRSEDTAMYYCAREGQGVVPVDYWGQGTLVTVSS
VL: DIQMTQSPSSLSASVGDRVTITCRASQSISSWLAWYQQKPGKAPKLLIYDATNLETGVPSRFSGSGSGTDFTLTISSLQPEDFATYYCLQDYNYPLTFGQSTKVEIKR
notes: IgG1; also called ST2 Antibody 29
B11: Human ST2 IgG1 Antibody 33 (antibody, V domains shown)
VH: QVQLVQSGAEVKKPGSSVKVSCKASGDTFDTYAISWVRQAPGQGLEWMGGIIPIFGTANYAQKFQGRVTITADESTSTAYMELSSLRSEDTAVYYCARSRGRGYSYGSGLFDYWGQGTLVTVSS
VL: DIVMTQSPLSLPVTPGEPASISCRSSESLLITNGFNYIDWYLQKPGQSPQLLIYLGSNRAAGVPDRFSGSGSGTDFTLKISRVEAEDVGVYYCMQALQTPITFGQGTKVEIKR
notes: IgG1; also called ST2 Antibody 33
B12: Human ST2 IgG1 Antibody 47 (antibody, V domains shown)
VH: QVQLVQSGAEVKKPGSSVKVSCKASGYTFTNYYMHWVRQAPGQGLEWMGGIIPIFGTANYAQKFQGRVTITADESTSTAYMELSSLRSEDTAVYYCARGGYYDSSQFDIWGQGTMVTVSS
VL: not shown
notes: IgG1; also called ST2 Antibody 47
B13: Human ST2 IgG1 Antibody 35 (antibody, V domains shown)
VH: QVQLVQSGAEVKKPGASVKVSCKASAYTFTSYGISWLRQAPGQGLEWMGWINPNSGNTGYAHKFQGRVTMTRDTSTSTVYMELSSLRSEDTAVYYCARGGSGWPTWGQGTLVTVSS
VL: DIQMTQSPSSLSASVGDRVTITCQASQDISNYLNWYQQKPGKAPKLLIYGASSLQSGVPSRFSGSGSGTDFTLTISSLQPEDFATYYCQQANTFPFTFGPGTKVDIKR
notes: IgG1; also called ST2 Antibody 35
B14: Human ST2 IgG1 Antibody 46 (antibody, V domains shown)
VH: EVQLLESGGGLVKPGGSLRLSCAASGFTFSSYWMSWVRQAPGKGLEWVSSISGTSNYMYYADSVKGRFTISRDDSKNTLYLQMNSLKTEDTAVYYCARDRGFLGYFDYWGQGTLVTVSS
VL: B13 VL with D28Y, S53T, A91S, N92Q, T93S, F94T, F96L
notes: IgG1; also called ST2 Antibody 46
B15: Human ST2 IgG1 Antibody 41 (antibody, V domains shown)
VH: QVQLVQSGAEVKKPGSSVKVSCKASGYTFTDYQMHWVRQAPGQGLEWVGVINPGGGSTTYAQTFQGRVTITADESTSTAYMELSSLRSEDTAVYYCARGGVEYSSSWDYYYYYGMDVWGQGTTVTVSS
VL: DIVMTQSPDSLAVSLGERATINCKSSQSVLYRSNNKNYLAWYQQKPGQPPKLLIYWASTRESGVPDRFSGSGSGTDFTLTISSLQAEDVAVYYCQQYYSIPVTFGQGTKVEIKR
notes: IgG1; also called ST2 Antibody 41
B16: Human ST2 IgG1 Antibody 45 (antibody, V domains shown)
VH: QVQLVQSGAEVKKPGSSVKVSCKASGGTFSSYAISWVRQAPGQGLEWMGGIVPIFETANYAQKFQGRVTITADESTSTAYMELSSLRSEDTAVYYCARDTPNFDYWGQGTLVTVSS
VL: not shown
notes: IgG1; also called ST2 Antibody 45
B17: Human ST2 IgG1 Antibody 65 (antibody, V domains shown)
VH: B16 VH with V52I, E56G, T100N, N102D
VL: B1 VL with G30S, S31N, W32Y, A34N, T93R, F94T, Y96I, K103R
notes: IgG1; also called ST2 Antibody 65
B18: Human ST2 IgG1 Antibody 30 (antibody, V domains shown)
VH: QVQLVQSGAEVKKPGSSVKVSCKASGYTFTTYGITWVRQAPGQGLEWMGGIIPIFGTANYAQKFQGRVTITADESTSTAYMELSSLRSEDTAVYYCAKLSGSSGSWDYYYYYGMDVWGQGTLVTVSS
VL: DIVMTQSPLSLPVTPGEPASISCRSSQSLLHSNGYNYLDWYLQKPGQSPQLLIYAASNLQSGVPDRFSGSGSGTDFTLKISRVEAEDVGVYYCMQALQTPITFGQSTRLEIKR
notes: IgG1; also called ST2 Antibody 30
B19: Human ST2 IgG1 Antibody 39 (antibody, V domains shown)
VH: QVQLVQSGAEVKKPGSSVKVSCKASGYTFTSYYMQWVRQAPGQGLEWMGGIIPIFGTANYAQKFQGRVTITADESTSTAYMELSSLRSEDTAVYYCARARFGAVDYWGQGTLVTVSS
VL: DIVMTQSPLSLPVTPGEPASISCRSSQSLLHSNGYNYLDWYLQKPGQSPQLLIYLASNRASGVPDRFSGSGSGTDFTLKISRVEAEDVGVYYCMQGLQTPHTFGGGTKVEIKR
notes: IgG1; also called ST2 Antibody 39
B20: Human ST2 IgG1 Antibody 43 (antibody, V domains shown)
VH: QVQLVQSGAQVKKPGASVKVSCKASGYTFSSYYIHWVRQAPGQGLEWMGWINPHSGGTNYGQEFQGRVTMTRDTSTSTVYMELSSLRSEDTAVYYCARDSSGMGATIGYWGQGTLVTVSS
VL: DIQMTQSPSSLSASVGDRVTITCRASQSVNRRLAWYQQKPGKAPKLLIYAASTLQSGVPSRFSGSGSGTDFTLTISSLQPEDFATYYCQQGNSFPITFGQGTKVEIKR
notes: IgG1; also called ST2 Antibody 43
B21: Human ST2 IgG1 Antibody 38 (antibody, V domains shown)
VH: QVQLVQSGAEVKKPGSSVKVSCKASGGTFSSYAISWVRQAPGQGLEWMGTIIPMFGIADYAQKFQGRVTITADESTSTAYMELSSLRSEDTAVYYCARSSRSSSWYNWYFDLWGRGTLVTVSS
VL: EIVMTQSPATLSVSPGERATLSCRASQSISSSYLAWYQQKPGQAPRLLIYGASTRATGIPARFSGSGSGTEFTLTISSLQSEDFAVYYCQQYYTTPWTFGQGTKVEIKR
notes: IgG1; also called ST2 Antibody 38

These binders were tested against T1, Human ST2 (assay: SPR (Carterra), antibody immobilized, ST2 analyte).
Experimental: Binding of the reformatted human ST2 antibodies to the human and mouse ST2 proteins was evaluated by surface plasmon resonance (SPR), using a high throughput antibody screening and characterization platform from Carterra (Salt Lake City, Utah).

| Kd [nM] | koff [s⁻¹] | kon [M⁻¹ s⁻¹] | Binder |
| --- | --- | --- | --- |
| 274 | 0.12 | 430000 | B1 |
| 109 | 0.0011 | 10000 | B2 |
| 264 | 0.14 | 510000 | B3 |
| 146 | 0.024 | 170000 | B4 |
| 691 | 0.12 | 180000 | B5 |
| 252 | 0.061 | 240000 | B6 |
| 100 | 0.024 | 240000 | B7 |
| 138 | 0.085 | 620000 | B8 |
| 278 | 0.088 | 320000 | B9 |
| 480 | 0.0065 | 14000 | B10 |
| 529 | 0.13 | 240000 | B11 |
| 413 | 0.12 | 300000 | B12 |
| 104 | 0.016 | 160000 | B13 |
| 339 | 0.042 | 120000 | B14 |
| 99 | 0.0024 | 24000 | B15 |
| 22 | 0.02 | 920000 | B16 |
| 76 | 0.055 | 730000 | B17 |
| 155 | 0.029 | 190000 | B18 |
| 57 | 0.022 | 390000 | B19 |
| 146 | 0.0074 | 51000 | B20 |
| 17 | 0.0053 | 310000 | B21 |
